Source: publication PMC10413350, “Kinetic and structural characterization of carboxyspermidine dehydrogenase of polyamine biosynthesis” (The Journal of Biological Chemistry, 2023)

Assays:
[1] = target: Bacteroides fragilis carboxyspermidine dehydrogenase (Bacteroides fragilis); assay: SEC; HiLoad 16/600 Superdex 200, 25 mM Tris pH 8; 100 ul of 10 mg/ml (BfCASDH) or 5 mg/ml (ClCASDH) injected
[2] = target: T1, BfCASDH (Bacteroides fragilis, UniProt I9VY56); assay: intrinsic tryptophan fluorescence quenching (ex […] nm, em […] nm), sigmoidal fit; assay type: binding
T1 construct: gene HMPREF1080_01141; full length (397 residues modelled per chain), N-terminal hexahistidine tag kept, pET-28b, E. coli BL21 (DE3)
T1 sequence (I9VY56 1-397): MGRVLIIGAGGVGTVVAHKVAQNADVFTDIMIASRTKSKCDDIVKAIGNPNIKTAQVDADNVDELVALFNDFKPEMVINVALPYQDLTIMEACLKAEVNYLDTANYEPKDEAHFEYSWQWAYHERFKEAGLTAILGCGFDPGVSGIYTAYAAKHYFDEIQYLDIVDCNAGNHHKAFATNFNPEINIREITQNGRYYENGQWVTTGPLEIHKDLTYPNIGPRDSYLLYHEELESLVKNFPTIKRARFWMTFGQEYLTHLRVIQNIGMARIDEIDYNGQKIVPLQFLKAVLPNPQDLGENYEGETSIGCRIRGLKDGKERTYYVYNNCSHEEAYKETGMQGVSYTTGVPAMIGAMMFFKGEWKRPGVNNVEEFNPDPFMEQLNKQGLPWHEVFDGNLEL

[3] = target: Clostridium leptum carboxyspermidine dehydrogenase (Clostridium leptum); assay: SEC; HiLoad 16/600 Superdex 200, 25 mM Tris pH 8; 100 ul of 10 mg/ml (BfCASDH) or 5 mg/ml (ClCASDH) injected
[4] = substrate: NC(=O)C1=CN([C@@H]2O[C@H](COP(=O)(O)OP(=O)(O)OC[C@H]3O[C@@H](n4cnc5c(N)ncnc54)[C@H](OP(=O)(O)O)[C@@H]3O)[C@@H](O)[C@H]2O)C=CC1; assay: purified protein; assay type: biochemical, [Clostridium] leptum; settings: apparent, 2.5 mM ASA (subsaturating), 20 mM putrescine, 25 mM Tris pH 7.5, varied: cofactor
[5] = substrate: NCCCCN; assay: purified protein; assay type: biochemical, [Clostridium] leptum; settings: apparent, 2.5 mM ASA (subsaturating), 150 uM NADPH, 25 mM Tris pH 7.5
[6] = substrate: NCCCN; assay: purified protein; assay type: biochemical, [Clostridium] leptum; settings: apparent, 2.5 mM ASA (subsaturating), 150 uM NADPH, 25 mM Tris pH 7.5
[7] = substrate: NC(=O)C1=CN([C@@H]2O[C@H](COP(=O)(O)OP(=O)(O)OC[C@H]3O[C@@H](n4cnc5c(N)ncnc54)[C@H](OP(=O)(O)O)[C@@H]3O)[C@@H](O)[C@H]2O)C=CC1; assay: purified protein; assay type: biochemical, Bacteroides fragilis; settings: apparent, 2.5 mM ASA (subsaturating), 20 mM putrescine, 25 mM potassium phosphate pH 7.5, varied: cofactor
[8] = substrate: NCCCCN; assay: purified protein; assay type: biochemical, Bacteroides fragilis; settings: apparent, from Hill equation (half-saturation), 2.5 mM ASA (subsaturating), 150 uM NADPH, 25 mM potassium phosphate pH 7.5
[9] = substrate: NCCCN; assay: purified protein; assay type: biochemical, Bacteroides fragilis; settings: apparent, from Hill equation (half-saturation), 2.5 mM ASA (subsaturating), 150 uM NADPH, 25 mM potassium phosphate pH 7.5
[10] = substrate: N[C@@H](CC=O)C(=O)O; assay: purified protein; assay type: biochemical, Bacteroides fragilis; settings: apparent, from Hill equation (half-saturation), 20 mM putrescine, 150 uM NADPH, 25 mM potassium phosphate pH 7.5, substrate inhibition above 2.5 mM

## Bacteroides fragilis carboxyspermidine dehydrogenase (enzyme)
[1]
  stoichiometry N: 2

## NCCCCN [putrescine]
[2]
  Kd: 11 ± 1 mM

## NCCCN [DAP]
[2]
  Kd: 15 ± 2 mM

## Clostridium leptum carboxyspermidine dehydrogenase (enzyme)
[3]
  stoichiometry N: 2

B1: ClCASDH ([Clostridium] leptum DSM 753) (protein)
chain: MGKALIIGCGGVASVAIHKCCQNSGVFEEICIASRTKSKCDALKEKLSGGKTKITTAQVDANSVDELTALINQVKPDVVLNLALPYQDLTIMEACLAAKVNYVDTANYEPEDTAKFEYSWQWAYRKKFEDAGITALLGSGFDPGVTGVFSAYAQKHYFDEINYIDILDCNAGDHGYPFATNFNPEINIREVSAKGSYWEDGHWVETEPMEIKRVYNFPEIGDKDMYLLHHEELESLALNIKGIKRIRFFMTFGQSYLTHLKCLEDVGMTSIEPIEFQGQQIVPLQFLKAVLPDPSSLGPRTKGKTNIGCIFQGKKDGKDKTYYVYNVCDHQECYKEVGSQAVAYTTGVPAMIGAMMLMTGVWNKPGVHNIEEFDPDPFMDALNKWGLPWKESFSPELVD
notes: full length, N-terminal hexahistidine tag, pET-28b, E. coli BL21 (DE3)
[4]
  Km: 16 ± 2 µM
  kcat: 0.22 ± 0.02 s⁻¹
  kcat/Km: 13800 ± 900 M⁻¹ s⁻¹
[5]
  Km: 5000 ± 600 µM
  kcat: 0.37 ± 0.01 s⁻¹
  kcat/Km: 74 ± 10 M⁻¹ s⁻¹
[6]
  Km: 6900 ± 1100 µM
  kcat: 0.49 ± 0.03 s⁻¹
  kcat/Km: 71 ± 12 M⁻¹ s⁻¹

B2: BfCASDH (Bacteroides fragilis CL05T12C13) (protein)
chain: MGRVLIIGAGGVGTVVAHKVAQNADVFTDIMIASRTKSKCDDIVKAIGNPNIKTAQVDADNVDELVALFNDFKPEMVINVALPYQDLTIMEACLKAEVNYLDTANYEPKDEAHFEYSWQWAYHERFKEAGLTAILGCGFDPGVSGIYTAYAAKHYFDEIQYLDIVDCNAGNHHKAFATNFNPEINIREITQNGRYYENGQWVTTGPLEIHKDLTYPNIGPRDSYLLYHEELESLVKNFPTIKRARFWMTFGQEYLTHLRVIQNIGMARIDEIDYNGQKIVPLQFLKAVLPNPQDLGENYEGETSIGCRIRGLKDGKERTYYVYNNCSHEEAYKETGMQGVSYTTGVPAMIGAMMFFKGEWKRPGVNNVEEFNPDPFMEQLNKQGLPWHEVFDGNLEL
notes: full length (397 residues modelled per chain), N-terminal hexahistidine tag kept, pET-28b, E. coli BL21 (DE3)
[7]
  Km: 57 ± 3 µM
  kcat: 0.39 ± 0.05 s⁻¹
  kcat/Km: 6700 ± 200 M⁻¹ s⁻¹
[8]
  K0.5: 4.2 ± 0.3 mM
  kcat: 0.41 ± 0.02 s⁻¹
  kcat/Km: 96 ± 7 M⁻¹ s⁻¹
[9]
  K0.5: 19.7 ± 3.6 mM
  kcat: 0.34 ± 0.03 s⁻¹
  kcat/Km: 17 ± 3 M⁻¹ s⁻¹
[10]
  K0.5: 2.7 ± 0.1 mM
  kcat: 0.64 ± 0.02 s⁻¹
  kcat/Km: 230 ± 15 M⁻¹ s⁻¹
